{
  "source": "patent US11512128B2",
  "about": "“VEGF/DLL4 binding agents and uses thereof” (MEREO BIOPHARMA 5, INC., priority 2011, dated 2022)",
  "molecules": {"B1": {"name": "219R45-MB-21M18: anti-VEGF/anti-DLL4 monovalent/bispecific antibody, heavy chains SEQ ID NO:7 and 5, light chains SEQ ID NO:8 (antibody)", "heavy 1": "QVQLVQSGAEVKKPGASVKVSCKASGYTFTNYWMHWVRQAPGQGLEWMGDINPSNGRTSYKEKFKRRVTLSVDKSSSTAYMELSSLRSEDTAVYFCTIHYDDKYYPLMDYWGQGTLVTVSSASTKGPSVFPLAPCSRSTSESTAALGCLVKDYFPEPVTVSWNSGALTSGVHTFPAVLQSSGLYSLSSVVTVPSSNFGTQTYTCNVDHKPSNTKVDKTVERKCCVECPPCPAPPVAGPSVFLFPPKPKDTLMISRTPEVTCVVVDVSHEDPEVQFNWYVDGVEVHNAKTKPREEQFNSTFRVVSVLTVVHQDWLNGKEYKCKVSNKGLPAPIEKTISKTKGQPREPQVYTLPPSREKMTKNQVSLTCLVKGFYPSDIAVEWESNGQPENNYKTTPPMLKSDGSFFLYSKLTVDKSRWQQGNVFSCSVMHEALHNHYTQKSLSLSPGK", "heavy 2": "QVQLVQSGAEVKKPGASVKISCKASGYSFTAYYIHWVKQAPGQGLEWIGYISSYNGATNYNQKFKGRVTFTTDTSTSTAYMELRSLRSDDTAVYYCARDYDYDVGMDYWGQGTLVTVSSASTKGPSVFPLAPCSRSTSESTAALGCLVKDYFPEPVTVSWNSGALTSGVHTFPAVLQSSGLYSLSSVVTVPSSNFGTQTYTCNVDHKPSNTKVDKTVERKCCVECPPCPAPPVAGPSVFLFPPKPKDTLMISRTPEVTCVVVDVSHEDPEVQFNWYVDGVEVHNAKTKPREEQFNSTFRVVSVLTVVHQDWLNGKEYKCKVSNKGLPAPIEKTISKTKGQPREPQVYTLPPSREEMTKNQVSLTCLVEGFYPSDIAVEWESNGQPENNYKTTPPMLDSDGSFFLYSELTVDKSRWQQGNVFSCSVMHEALHNHYTQKSLSLSPGK", "light": "DIVMTQSPDSLAVSLGERATISCRASESVDNYGISFMKWFQQKPGQPPKLLIYAASNQGSGVPDRFSGSGSGTDFTLTISSLQAEDVAVYYCQQSKEVPWTFGGGTKVEIKRTVAAPSVIFPPSDEQLKSGTASVVCLLNNFYPREAKVQWKVDNALQSGNSQESVTEQDSKDSTYSLSSTLTLSKADYEKHKVYACEVTHQGLSSPVTKSFNRGEC", "modifications": "21R79 Heavy chain without predicted signal sequence; 21M18 Heavy chain without predicted signal sequence; Light chain without predicted signal sequence"}},
  "key": {"[1]": {"target": "T1, mouse VEGF165 (Mus musculus, UniProt Q00731)", "T1 sequence (Q00731 27-190 isoform Q00731-2)": "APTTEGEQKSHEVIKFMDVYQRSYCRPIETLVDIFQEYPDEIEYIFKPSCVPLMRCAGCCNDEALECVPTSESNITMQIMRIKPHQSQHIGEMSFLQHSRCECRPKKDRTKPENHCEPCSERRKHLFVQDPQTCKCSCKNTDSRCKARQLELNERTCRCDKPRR", "test": "Biacore binding affinity (KD) to mouse VEGF", "method": "(§1) The KDs of parental antibodies anti-VEGF 219R45 (IgG format), anti-DLL4 21R79 (IgG format), anti-DLL4 21M18 (IgG format) and bispecific antibodies 219R45-MB-21M18 and 219R45-MB-21R79 were determined using a Biacore 2000 system from Biacore LifeSciences (GE Healthcare). Recombinant human DLL4-Fc or mouse DLL4-Fc proteins were immobilized on CM5 carboxyl chips using standard amine-based chemistry (NHS/EDC) and blocked with ethanolamine. Recombinant human VEGF165 or mouse VEGF165 were biotinylated and immobilized on streptavidin chips. The antibodies were serially diluted 2-fold from 100 nM to 0.78 nM in HBS-P (0.01M HEPES pH7.4, 0.15M NaCl, 0.005% v/v Polysorbate 20). For each antibody, all 8 dilutions were sequentially injected over a specific chip. Kinetic data were collected over time and were fit using the simultaneous global fit equation to yield affinity constants (KD values) for each bispecific antibody."}, "[2]": {"target": "mouse DLL4-Fc", "sequence (Q9JI71 27-519 limits assumed)": "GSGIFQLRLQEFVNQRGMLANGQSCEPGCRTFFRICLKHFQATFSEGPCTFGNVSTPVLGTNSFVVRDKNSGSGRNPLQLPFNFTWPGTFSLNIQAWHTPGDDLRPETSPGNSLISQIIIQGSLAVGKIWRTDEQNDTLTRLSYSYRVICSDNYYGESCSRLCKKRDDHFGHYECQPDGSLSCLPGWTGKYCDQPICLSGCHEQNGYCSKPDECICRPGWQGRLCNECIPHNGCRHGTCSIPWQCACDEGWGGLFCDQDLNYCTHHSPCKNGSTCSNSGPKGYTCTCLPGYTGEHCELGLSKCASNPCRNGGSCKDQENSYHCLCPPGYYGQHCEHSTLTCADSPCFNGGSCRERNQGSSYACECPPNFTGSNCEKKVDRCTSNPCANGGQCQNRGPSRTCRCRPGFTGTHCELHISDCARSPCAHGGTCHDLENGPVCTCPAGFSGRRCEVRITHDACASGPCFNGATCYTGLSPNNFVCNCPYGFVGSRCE", "test": "Biacore binding affinity (KD) to mouse DLL4", "settings": "Biacore 2000, mouse DLL4-Fc on CM5 chip; read-out: KD mDLL4", "method": "as §1"}, "[3]": {"test_system": "DLL4-induced Notch signaling", "test": "DLL4-induced Notch signaling luciferase reporter assay in Notch2-expressing PC3 cells", "assay_type": "cell-based", "settings": "coated human DLL4 100 ng/well, antibody 20 to 0.064 ug/ml", "method": "FIG. 4. Inhibition of DLL4-induced Notch signaling by anti-VEGF/anti-DLL4 bispecific antibodies. Luciferase activity was measured using a dual luciferase assay kit with firefly luciferase activity normalized to Renilla luciferase activity. 219R45-MB-21M18 (-●-); 219R45-MB-21R79 (-▪-); 21M18 (-∘-); 21R79 (-□-).\nHuman PC3 cells were transfected with an expression vector encoding a full-length human Notch2 receptor and a firefly luciferase reporter vector (8× CBF-luciferase reporter) that is responsive to Notch signaling. The cells were also transfected with a Renilla luciferase reporter (Promega, Madison, Wis.) as an internal control for transfection efficiency. Purified human DLL4 protein was coated onto 96-well plates at 100 ng/well and Notch2-expressing PC3-luc cells were added to the wells. Anti-VEGF/anti-DLL4 bispecific antibodies 219R45-MB-21M18, 219R45-MB-21R79, parental anti-DLL4 antibodies 21M18, 21R79 or a control antibody LZ1 were serially diluted 5-fold from 20 ug/ml to 0.064 ug/ml, added to the appropriate wells, and incubated overnight. Luciferase activity was determined using a dual luciferase assay kit (Promega, Madison, Wis.) with firefly luciferase activity normalized to Renilla luciferase activity."}, "[4]": {"test_system": "OMP-PN8 pancreatic tumor cells", "test": "Tumorigenicity of OMP-PN8 pancreatic tumor cells after treatment (serial transplantation)", "assay_type": "in vivo, NOD/SCID mice", "settings": "90 cells from treated tumors transplanted, day 55, no treatment; 21M18, bevacizumab 15 mg/kg, bispecifics 30 mg/kg, gemcitabine 70 mg/kg, four weeks", "method": "FIG. 6. Tumorigenicity of pancreatic tumor cells after treatment with anti-VEGF/anti-DLL4 bispecific antibodies. OMP-PN8 tumor cells from mice treated with control antibody, anti-hDLL4 antibody 21M18, anti-VEGF antibody bevacizumab, or anti-VEGF/anti-DLL4 bispecific antibodies 219R45-MB-21M18 or 219R45-MB-21R79 with or without gemcitabine were processed to single cell suspensions, and serially transplanted into mice. 90 cells from each treatment group were injected subcutaneously into NOD/SCID mice. Tumors were allowed to grow with no treatment. Data is shown as tumor volume (mm^3) on day 55. Tumor frequency is shown as number of tumors over total number of mice injected in each group.\nMice bearing OMP-PN8 pancreatic tumors were treated with control antibody (15 mg/kg), anti-hDLL4 antibody 21M18 (15 mg/kg), anti-VEGF antibody bevacizumab (15 mg/kg), or anti-VEGF/anti-DLL4 bispecific antibodies 219R45-MB-21M18 or 219R45-MB-21R79 (30 mg/kg) with or without gemcitabine (70 mg/kg). Following four weeks of treatment, tumors were harvested, processed to single cell suspensions and the human tumor cells were purified by immunomagnetic depletion of murine cells. 90 human tumor cells from each treatment group were transferred to a new cohort of mice (n=10 mice/group). Tumors were allowed to grow for 55 days without any treatment and tumor volumes were measured with electronic calipers."}, "[5]": {"test_system": "OMP-C8 colon tumor", "test": "Tumorigenicity of OMP-C8 colon tumors after treatment (serial transplantation)", "assay_type": "in vivo, NOD/SCID mice", "settings": "150 cells from treated tumors transplanted, day 68", "method": "FIG. 10. Tumorigenicity of […] colon tumor cells after treatment with anti-VEGF/anti-DLL4 bispecific antibodies. Tumors from mice treated with control antibody, anti-hDLL4 antibody 21M18, anti-VEGF antibody bevacizumab, a combination of 21M18 and bevacizumab, or anti-VEGF/anti-DLL4 bispecific antibodies 219R45-MB-21M18 or 219R45-MB-21R79 with or without irinotecan were processed to single cell suspensions, and serially transplanted into mice. 150 cells from each treatment group were injected subcutaneously into NOD/SCID mice. Tumors were allowed to grow with no treatment. Data are shown as tumor volume (mm^3) on day 68.\nSingle cell suspensions of OMP-C8 colon tumor xenografts (20,000 cells) were injected subcutaneously into the flanks of 6-8 week old NOD/SCID mice. Tumors were allowed to grow for 33 days until they reached an average volume of 300 mm^3. The mice were randomized (n=5 per group) and treated with anti-DLL4 antibody 21M18, anti-VEGF antibody bevacizumab, a combination of antibodies 21M18 and bevacizumab, anti-VEGF/anti-DLL4 bispecific antibody 219R45-MB-21M18, anti-VEGF/anti-DLL4 bispecific antibody 219R45-MB-21R79, or control antibody, either in combination with irinotecan or without irinotecan. Antibodies and irinotecan were dosed weekly by injection into the intraperitoneal cavity. Antibodies 21M18 and bevacizumab were dosed at 7.5 mg/kg, bispecific antibodies 219R45-MB-21M18 and 219R45-MB-21R79 were dosed at 15 mg/kg, and irinotecan was dosed at 45 mg/kg. Tumors were harvested after 4 weeks, processed into single cell suspensions, and the human tumor cells were isolated. 150 tumor cells from each experimental group were injected subcutaneously into a new cohort of mice (n=10 per group) and tumors were allowed to grow without treatment. Tumor growth was monitored and tumor volumes were measured with electronic calipers."}},
  "data": [
    {"molecule": "B1", "values": [
      {"measurement": "binding to mouse VEGF (in words)", "setting": "[1]", "result": "bind mouse VEGF"},
      {"measurement": "Kd", "setting": "[2]", "result": "> 100", "unit": "nM"},
      {"measurement": "inhibition of DLL4-induced Notch signaling", "setting": "[3]", "result": "inhibited DLL4-induced Notch signaling only at high antibody concentrations"},
      {"measurement": "tumor growth frequency (mice with tumors)", "setting": "[4]", "result": "5 out of 10"},
      {"measurement": "tumor growth frequency, combination of irinotecan and antibodies", "setting": "[5]; with irinotecan 45 mg/kg", "result": "had the greatest effect in reducing tumor growth frequency"},
      {"measurement": "tumor growth frequency, single agents", "setting": "[5]; without irinotecan combination", "result": "reduced tumor growth frequency"}
    ]}
  ]
}
